{"source": "patent US20030129186A1", "about": "(published 2003)", "binders": {"B1": {"name": "recombinant human melanotransferrin (p97) (ligand, UniProt P08582 20-709, looked up)", "chain": "GMEVRWCATSDPEQHKCGNMSEAFREAGIQPSLLCVRGTSADHCVQLIAAQEADAITLDGGAIYEAGKEHGLKPVVGEVYDQEVGTSYYAVAVVRRSSHVTIDTLKGVKSCHTGINRTVGWNVPVGYLVESGRLSVMGCDVLKAVSDYFGGSCVPGAGETSYSESLCRLCRGDSSGEGVCDKSPLERYYDYSGAFRCLAEGAGDVAFVKHSTVLENTDGKTLPSWGQALLSQDFELLCRDGSRADVTEWRQCHLARVPAHAVVVRADTDGGLIFRLLNEGQRLFSHEGSSFQMFSSEAYGQKDLLFKDSTSELVPIATQTYEAWLGHEYLHAMKGLLCDPNRLPPYLRWCVLSTPEIQKCGDMAVAFRRQRLKPEIQCVSAKSPQHCMERIQAEQVDAVTLSGEDIYTAGKTYGLVPAAGEHYAPEDSSNSYYVVAVVRRDSSHAFTLDELRGKRSCHAGFGSPAGWDVPVGALIQRGFIRPKDCDVLTAVSEFFNASCVPVNNPKNYPSSLCALCVGDEQGRNKCVGNSQERYYGYRGAFRCLVENAGDVAFVRHTTVFDNTNGHNSEPWAAELRSEDYELLCPNGARAEVSQFAACNLAQIPPHAVMVRPDTNIFTVYGLLDKAQDLFGDDHNKNGFKMFDSSNYHGQDLLFKDATVRAVPVGEKTTYRGWLGLDYVAALEGMSSQQC", "notes": "also called MTf"}}, "key": {"[1]": {"target": "T1, p97 receptor (melanotransferrin receptor, MTf-R) on bovine brain capillary endothelial cells (BBCECs) (bovine)", "experiment": "cell-based or functional assay"}, "[2]": {"target": "p97 receptor on isolated human brain capillaries (human)", "experiment": "cell-based or functional assay"}, "[3]": {"target": "T1, p97 receptor (melanotransferrin …)", "experiment": "[125I]-p97 (25 nM) binding to BBCECs, 2 h at 4 C, with or without saponin"}, "[4]": {"target": "T1, p97 receptor (melanotransferrin …)", "experiment": "Scatchard plot of specific [125I]-p97 binding to saponin-treated BBCECs (FIG. 12c)"}, "[5]": {"target": "T1, p97 receptor (melanotransferrin …)", "experiment": "Scatchard analysis of [125I]-p97 binding to saponin-permeabilized BBCEC monolayers at 4 C, displaced by unlabelled p97"}}}
{"binder": "B1", "values": [{"measurement": "decrease in apical-to-basal transport of [125I]-p97 (25 nM) across BBCEC monolayers with a 200-fold molar excess of unlabelled p97", "setting": "[1]", "value": 69, "unit": "%"}, {"measurement": "decrease in uptake of [125I]-p97 (100 nM) into isolated human brain capillaries, 1 h at 37 C, with a 50-fold molar excess of unlabelled p97", "setting": "[2]", "value": 60, "unit": "%"}, {"measurement": "fold increase of [125I]-p97 associated with cells after saponin permeabilization (against untreated cells)", "setting": "[3]", "value": 4, "unit": "fold"}, {"measurement": "Kd", "setting": "[4]", "value": "~1", "unit": "µM"}, {"measurement": "Kd", "setting": "[5]", "value": 1.4, "unit": "µM"}]}
